One block for each molecule: values may come before it.
Tests used:
[1] = molecular target: dehydrogenase domain (DH) of MtCDH variant M309R (Myriococcum thermophilum)
[2] = molecular target: dehydrogenase domain (DH) of Myriococcum thermophilum cellobiose dehydrogenase, wild type (Myriococcum thermophilum)
[3] = molecular target: dehydrogenase domain (DH) of MtCDH variant R698S (Myriococcum thermophilum)
[4] = molecular target: dehydrogenase domain (DH) of MtCDH variant W295A (Myriococcum thermophilum)
[5] = molecular target: dehydrogenase domain (DH) of MtCDH variant Y549F (Myriococcum thermophilum)
[6] = molecular target: dehydrogenase domain (DH) of MtCDH variant N292S (Myriococcum thermophilum)
[7] = molecular target: dehydrogenase domain (DH) of MtCDH variant N700S (Myriococcum thermophilum)
[8] = molecular target: dehydrogenase domain (DH) of MtCDH variant Y619Q (Myriococcum thermophilum)
[9] = molecular target: dehydrogenase domain (DH) of MtCDH variant S298Q (Myriococcum thermophilum)
[10] = molecular target: dehydrogenase domain (DH) of MtCDH variant M309A (Myriococcum thermophilum)
[11] = molecular target: T1, Neurospora crassa lytic polysaccharide monooxygenase NcLPMO9F (Neurospora crassa) (UniProt Q1K4Q1)
T1 sequence (chain, non-glycosylated; N-terminal histidine not methylated): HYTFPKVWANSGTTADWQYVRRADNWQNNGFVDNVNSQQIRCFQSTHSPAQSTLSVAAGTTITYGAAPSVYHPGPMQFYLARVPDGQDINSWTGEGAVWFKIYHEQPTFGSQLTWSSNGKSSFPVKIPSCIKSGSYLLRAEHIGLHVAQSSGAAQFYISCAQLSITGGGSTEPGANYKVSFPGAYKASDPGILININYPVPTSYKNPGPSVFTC

[12] = molecular target: T1, Neurospora crassa lytic polysaccharide monooxygenase NcLPMO9F (Neurospora crassa); remark: listed apart in the source

haem b reduction rate kobs (interdomain electron transfer) of 5 μM full-length MtCDH M309R with 25 mM cellobiose, stopped flow at 563 nm, 30 °C, pH 5.0 [1]: 0.088 s⁻¹
haem b reduction rate kobs (flavin-to-haem interdomain electron transfer) of 5 μM full-length MtCDH wild type with 25 mM cellobiose, stopped flow at 563 nm, 30 °C, 50 mM sodium citrate pH 5.0 [2]: 0.76 s⁻¹
haem b reduction rate kobs (interdomain electron transfer) of 5 μM full-length MtCDH R698S with 25 mM cellobiose, stopped flow at 563 nm, 30 °C, pH 5.0 [3]: 0.011 s⁻¹
haem b reduction rate kobs (interdomain electron transfer) of 5 μM full-length MtCDH W295A with 25 mM cellobiose, stopped flow at 563 nm, 30 °C, pH 5.0 [4]: 0.86 s⁻¹
haem b reduction rate kobs (interdomain electron transfer) of 5 μM full-length MtCDH Y549F with 25 mM cellobiose, stopped flow at 563 nm, 30 °C, pH 5.0 [5]: 0.76 s⁻¹
haem b reduction rate kobs (interdomain electron transfer) of 5 μM full-length MtCDH N292S with 25 mM cellobiose, stopped flow at 563 nm, 30 °C, pH 5.0 [6]: 0.95 s⁻¹
haem b reduction rate kobs (interdomain electron transfer) of 5 μM full-length MtCDH N700S with 25 mM cellobiose, stopped flow at 563 nm, 30 °C, pH 5.0 [7]: 1.37 s⁻¹
haem b reduction rate kobs (interdomain electron transfer) of 5 μM full-length MtCDH Y619Q with 25 mM cellobiose, stopped flow at 563 nm, 30 °C, pH 5.0 [8]: 0.38 s⁻¹
haem b reduction rate kobs (interdomain electron transfer) of 5 μM full-length MtCDH S298Q with 25 mM cellobiose, stopped flow at 563 nm, 30 °C, pH 5.0 [9]: 0.09 s⁻¹
haem b reduction rate kobs (interdomain electron transfer) of 5 μM full-length MtCDH M309A with 25 mM cellobiose, stopped flow at 563 nm, 30 °C, pH 5.0 [10]: 0.056 s⁻¹
Molecule: cytochrome domain (CYT) of Myriococcum thermophilum cellobiose dehydrogenase (domain or fragment)

haem b re-oxidation rate (kobs) of reduced NcCYT (4 μM) mixed with NcLPMO9F (20 μM), stopped flow at 563 nm, 30 °C, 50 mM sodium citrate pH 5.0 (re-oxidation by oxygen alone 0.0007 s^−1) [11]: 67.2 s⁻¹
B1: cytochrome domain of Neurospora crassa cellobiose dehydrogenase IIA (separate fragment) (domain or fragment)
chain: QTAPKTFTHPDTGIVFNTWSASDSQTKGGFTVGMALPSNALTTDATEFIGYLECSSAKNGANSGWCGVSLRGAMTNNLLITAWPSDGEVYTNLMFATGYAMPKNYAGDAKITQIASSVNATHFTLVFRCQNCLSWDQDGVTGGISTSNKGAQLGWVQAFPSPGNPTCPTQITLSQHDNGMGQWGAAFDSNIANPSYTAWAAKATKTVTGTCSGPVTTSIAATPVPTGVSFDYIVVGGGAGGIPVADKLSESGKSVLLIEKGFASTGEHGGTLKPEWLNNTSLTRFDVPGLCNQIWKDSDGIACSDTDQMAGCVLGGGTAINAGLWYKPYTKDWDYLFPSGWKGSDIAGATSRALSRIPGTTTPSQDGKRYLQQGFEVLANGLKASGWKEVDSLKDSEQKNRTFSHTSYMYINGERGGPLATYLVSAKKRSNFKLWLNTAVKRVIREGGHITGVEVEAFRNGGYSGIIPVTNTTGRVVLSAGTFGSAKILLRSGIGPKDQLEVVKASADGPTMVSNSSWIDLPVGHNLVDHTNTDTVIQHNNVTFYDFYKAWDNPNTTDMNLYLNGRSGIFAQAAPNIGPLFWEEITGADGIVRQLHWTARVEGSFETPDGYAMTMSQYLGRGATSRGRMTLSPTLNTVVSDLPYLKDPNDKAAVVQGIVNLQKALANVKGLTWAYPSANQTAADFVDKQPVTYQSRRSNHWMGTNKMGTDDGRSGGTAVVDTNTRVYGTDNLYVVDASIFPGVPTTNPTAYIVVAAEHAAAKILAQPANEAVPKWGWCGGPTYTGSQTCQAPYKCEKQNDWYWQCV

re-oxidation rate of the FAD cofactor of NcDH (10 μM) in the presence of 50 μM NcLPMO9F, stopped flow at 450 nm (0.0444 s^–1 without LPMO): unchanged, no electron transfer [12]: 0.0442 s⁻¹
B2: dehydrogenase domain of Neurospora crassa cellobiose dehydrogenase IIA (separate fragment) (domain or fragment)
chain: B1 chain

Source: PMC4507011
